According to the DeepSol protein solubility set:

Assay: soluble on expression in E. coli; label from the status in PepcDB or PDB records

With “MGSDKIHHHHHHMGIYFNPGNGSFTKDKNSQLYIDKTGLIEYLNRVICTNANCISVSHARRFGKSHAAGMIDAYYSRGCDSSELFADSEIAAKDSYSAHLNKYNVIHIDVSSFWDAYKDNVIEKIQEYIYDELKQVYGDQIDYTKMISAVLMSVYNISDIPFVIIIDEWDCVIRNGGNKTLVHSYLQFLHLLFKSEESKTFLALAYITGILPIKKIKDESALNNFREFTMLKSKQLTRYFGFTEDEVKKLCITYDMDFESIKAWYNGYLIDGLHMYNPNSVVQAMLDHDYDFYWKNTSSFESINTFITMNYAGLKDDVLAMLSGDKIRVNVNTFQNDLTTVASKDDALTALIHLGYLAYDANRKMAYIPNYEVAAAYDLALQTGSWSEVANSISKCDELLDATLNEDADKVAELVEIAHETYTSVLKYNDENSLSCALTMAYFTANAYYNIVREFPAGKGFADLVFIPRANACGRPAIVIELKYNASADSAISQIKNRRYHGALSGYSNQILLVGINYSNTSDNKKHTCIIESINNLD” the “soluble on expression in E. coli” value was “not soluble”.

With “MNAVTEGRKVLLEIADLKVHFEIKDGKQWFWQPPKTLKAVDGVTLRLYEGETLGVVGESGCGKSTFARAIIGLVKATDGHVAWLGKELLGMKPDEWRAVRSDIQMIFQDPLASLNPRMTIGEIIAEPLRTYHPKMSRQEVRERVKAMMLKVGLLPNLINRYPHEFSGGQCQRIGIARALILEPKLIICDEPVSALDVSIQAQVVNLLQQLQREMGLSLIFIAHDLAVVKHISDRVLVMYLGHAVELGTYDEVYHNPLHPYTRALMSAVPIPDPDLEKNKTIQLLEGELPSPINPPSGCVFRTRCPIAGPECAKTRPVLEGSFRHAVSCLKVDPL” the “soluble on expression in E. coli” value was “not soluble”.

With “MLLQLAEDRRRLKGVQSTVKKAEIKVELLPKYAAWAEGVLAAGGAQQDDVLMYVMLWRIDAGDYAGALEIGRHALRHGWVMPLGNRNVQTVLAEEMADAAQSAMLATTGFDVDLLLQTLELTDGLDMPDQSRARLHKAIGAVLSESNPASALNHLNHALQLDPRCGVKKDKQQLERRLRNDSR” the “soluble on expression in E. coli” value was “not soluble”.

With “MAELYVKPGNKERGWNDPPQFSYGLQTQTGGPKRTPLTKRVAAPQDGSPRAPETSGPPPVDHPPPSSKASRPPPMGSCPATGVEPPSSPVIESETLIEDVLRPLEQALEDCHGHTKKQVCDDISRRLVLLREQWAGGKLSIPVKKRMALLVQELLHHQWDAADDIHRSLMVDYVTEVSQWMVGVKRLIAEKRSLSSEETKEEKFTVEPENQTIPGFQQPS” the “soluble on expression in E. coli” value was “not soluble”.

With “MIKLIATDMDGTFLAEDGTYNQEQLAALLPKLAEKGILFAVSSGRSLLAIDQLFEPFLDQIAVIAENGSVVQYRGEILFADMMTKEQYTEVAKKILANPHYVETGMVFSGQKAAYILKGASEEYIQKTKHYYANVKVINGFEDMENDAIFKVSTNFTGHTVLEGSDWLNQALPYATAVTTGFDSIDIILKEVNKGFGMEHLCQALGIKKAETIAFGDNFNDYQMLEFAGRAIATENARPEIKVISDQVIGHCNDGAVLTYLKGLV” the “soluble on expression in E. coli” value was “not soluble”.

For “MRKDETSNTSPDISAAQPASALRYHLRPPRRNDGAAIHQLVSECPPLDLNSLYAYLLLCEHHAHTCVVAESPGGRIDGFVSAYLLPTRPDVLFVWQVAVHSRARGHRLGRAMLGHILERQECRHVRHLETTVGPDNQASRRTFAGLAGERGAHVSEQPFFDRQAFGGADHDDEMLLRIGPFTHPPH”, the “soluble on expression in E. coli” value was “not soluble”.

For “SGKTSQRKQCDCENPSKPCLSTSIPLRMSSYTFKRPVTKITSHLGNEVRYYQWEETFKKPEQACWQKRLQGLQAYSSAGELLSTSDLAKTLKDLTSTDTVASASDTQAASIDITSVPTLESSSHLANMIPEAGPQILCKEFLVTEQDIINQERKVKIARERLAVALIAHKLASEMETVRGSRKANL”, the “soluble on expression in E. coli” value was “soluble”.

With “QWGAPEAQKMARDLRSFALSGGSIVSVRAGVWARDANDFIFIGKVEDDKLYALNMWRFDDDKNLEKVIFAEEVDYQQDNNWLMRDVQITNMQDENVISKQEMDQMEWHTSLAPDKLAVVTVKPEELSLSGLYDYVTYLKASEQDASRYELAFWRKLTQP” the “soluble on expression in E. coli” value was “not soluble”.

In the case of “MLTVHHLNQSRSQRILWALEELALPYQIVRYQREKTMLAPPALKKVHPLGKSPVIEDHGMVIAESGAILEYLQDTYDSIGRFKPADAQGKQHYRFWLHYAEGSLMPLLLMRLLFTSLGKPPVPLGLRTLGGVIGKGAQKAYLNPQLETHARFIDGHLANHPWFAGEQLSMADIQMSFPLFALLARGGIAHLDHINAWKARVEMRPAWQRAIQQGGPFTIPGG”, the “soluble on expression in E. coli” value was “not soluble”.

For “MSLATTHLDVCAVVPAAGFGRRMQTECPKQYLSIGNQTILEHSVHALLAHPRVKRVVIAISPGDSRFAQLPLANHPQITVVDGGDERADSVLAGLKAAGDAQWVLVHDAARPCLHQDDLARLLALSETSRTGGILAAPVRDTMKRAEPGKNAIAHTVDRNGLWHALTPQFFPRELLHDCLTRALNEGATITDEASALEYCGFHPQLVEGRADNIKVTRPEDLALAEFYLTRTIHQENT”, the “soluble on expression in E. coli” value was “soluble”.

In the case of “MSLRTSGSRLNSVRCASALTISGWKNNCVIEFDASGRIQSLREDSQSDVDLDLKGTVIAGIPNLHSHAHQKVITGLTEHRIAGQDDFWGWRELMYRANARLDPEQLQTIARYLYIDMLQKGYTSVAEFHYLHHQPDGTPYADLSEMSAQLLEAASEAGIAITLLPVLYCRGGFKDEPVQDSQHRFFNNPERYLALLESCHSLCANNPDRSLGFAAHSLRAVSPSAMSSTIEAAGPMLEGAPIHIHVAEQMREVNDCIEINGARPVAWLYDQCDVNDRWCLVHATHVDPQEQALLAQSGAIVGLCPTTEANLGDGIFPAAELMTNNGFLGVGSDSQVCTSPAEELRLLEYSQRFSLQRRTVLVPDEAGSNGRALTTAAIIGGNRARGEPLAGLQPGARGDLVEIGSDHVEFAGRSPDQVLDTWIFSGPDNPVQNVVAGGRHVVHDGVHPAMESASRAYREMVNALDLSEGHHHHHH”, the “soluble on expression in E. coli” value was “soluble”.

In the case of “MGSDKIHHHHHHMTGRRCERTTSPGTGGRLRAEPADFQVQEVPAYLPGGSGEYLYLHVEKTRHTTAHVVRELCAQLGVRDRDVGVAGLKDRHAVTTQWLSLPAKVEPRMGDFSLPGVRILETSRHTNKLGMGHLHGNRFVVRVRGAAGMAEQAGETLATLAQGGVPNYFGPQRFGLGGLNAEEGLRVLRGESELRDPRVRRFLTSSVQSAIFNALVSLRLEREVFDRLLTGDMAKKHDTGGVFLVEDAGAETPRAQRGEVSATGTLFGRKVKPLTADAGALEAEALALFGLSPQVFASRKGDRRLIRVFPAEAEVRPEDDGYVLAFTLPKGSFATSVLREVMKTEVDAPGAGPDTTDEGEAGDGE”, the “soluble on expression in E. coli” value was “not soluble”.

With “MSLQIIEPDNLIKEGDLRSIRAKTLQSARGIISDRNGEALAVSVPVEAVWADPVAIYKEGGLVEKDRWYALADVLGLDRQEMMKKIEDNRSRRFIYLQRQVSPAMAKYIRELKLAGIGLKEESRRYYPAGEVSAHLVGVTGIDGHGLEGVERSFDSTLTGESGKSVTRKDKFGRVVENIALEEREEGKPIQLTIDQRLQAIAFRAVKQAMADYRATSASAVMLDVKTGAVLAMVNAPSYNPNNRNDWQSFKMRNRVITDAFEPGSTVKPFVVLAALANGIADKNTIIDTGDGTMQIGGSRVRDTSKVGKADLTLILKKSSNIGVAKLALEMPLEALLGMYSSVGLGEMSGLDLVGETIGIFPNRRRWSQFEIATLSFGYGLAITPIQLAHAYATLGNHGKYQPIHIIKGDQHGETRQVVDPKYVNQVLEMLETVTQPGGTATRAAVPGYRIAAKSGTSRKAIAGGYSDEYFAYTAGVAPVSDPRISLVVMVNEPQGDSYYGGAVAGPVFSEIMKGALQILNIAPDENRFQNEGHHHHHH” the “soluble on expression in E. coli” value was “soluble”.

With “MSLASYLDFEKNIQQIDEDIINAQIKGDTEAVSILKKNLEKEISKTYKNLSDFQRLQLARHPDRPYALDYIELILNDAHEIHGDRAFRDDPAIVCFMGYLGEKKIIVIGEQKGRGTKDKIARNFGMPHPEGYRKALRVAGLAEKFQIPILFLIDTPGAYPGIGAEERGQSEAIARNLYELSDLKIPTIAIVIGEGGSGGALAIGVADKLAMMKNSVFSVISPEGCAAILWNDPAKSEAATKAMKVTADDLKSQGLIDDVIDEPTNGAHRNKEAAAVAIADYVKKSLNELENIDVRELSANRMQKILKLGAYQEAEGHHHHHH” the “soluble on expression in E. coli” value was “soluble”.

In the case of “MYDTIVIGAGQAGISIGYYLKQSDQKFIILDKSHEVGESWKDRYDSLVLFTSRMYSSLPGMHLEGEKHGFPSKNEIVAYLKKYVKKFEIPIQLRTEVISVLKIKNYFLIKTNREEYQTKNLVIATGPFHTPNIPSISKDLSDNINQLHSSQYKNSKQLAYGNVLVVGGGNSGAQIAVELSKERVTYLACSNKLVYFPLMIGKRSIFWWFDKLGVLHASHTSIVGKFIQKKGDPVFGHELKHAIKQKEIILKKRVIAAKQNEIIFKDSSTLEVNNIIWATGFRNPLCWINIKGVLDQEGRIIHHRGVSPVEGLYFIGLPWQHKRGSALLQGVGNDAEYIVKQMNGELEHHHHHH”, the “soluble on expression in E. coli” value was “soluble”.

For “MGSDKIHHHHHHMKTKLILVGGFLGVGKTTLLGEAARRLSQTGRKVGLITNDQASELVDTVYLEQTGTEVSEVSGSCFCCNFPGFMEAIDHVNAHKPADIIIAEPVGSCTDLSATILQPLKEKFADKLSVAPLSVLVDPRQLTDILDGRTAGLHPSAAYILRKQLEEADLIVINKTDLLTPLAVEILKKRTAEEWPLASVYAISAKTGEGLAAWLHEAQQRSGAGTHLAEVDYDTYAEGEAVLGWLNATIELQSQGADWDTLGRNLLNSLRSRFGSLNAAIGHVKLLIATDQGYVIGNITGAKDSLDIRESAGTGRKAQLTLNARVQMEPDLLEEIVKEEIAKVQADKITATIAVLKCLKPGRPNPTYRYGTIVG”, the “soluble on expression in E. coli” value was “not soluble”.

For “MQALTTYKCIEKGIVVWLTGLPGSGKTTIATRLADLLQKEGYRVEVLDGDWARTTVSEGAGFTREERLRHLKRIAWIARLLARNGVIVICSFVSPYKQARNMVRRIVEEEGIPFLEIYVKASLEEVIRRDPKGLYKKALKGELENFTGITDPYEPPENPQLVLDTESNTIEHNVSYLYSLVKAVIE”, the “soluble on expression in E. coli” value was “soluble”.

In the case of “DRYCLTAPNYRLKSLQKKASTSAGRITVPRLSVGSVTSRPSTPTLGTPTPQTMSVSTKVGTPMSLTGQRFTVQMPTSQSPAVKASIPATSAVQNVLINPSLIGSKNILITTNMMSSQNTANESSNALKRKR”, the “soluble on expression in E. coli” value was “soluble”.

For “MSLETMNNKYKIMQLSDLHFGQDLGRCDDTNTSSGEHVDEFKCSSDLKTLKFIEKSIQEENPDLIVITGDLIDIHRSIDYKSIMLKSLQPILAHKIKFIYTFGDEIKDQLTKISIIQFLSTLPNCLNTVPQEVIEGITNYNFQIKQKSSTPSSSSSISVTVLDSEDHLIDDSQMTYLYRINNELLNDYKLLFFHYPLPQFRPKGKFKIVGSYNEKHELDRKTKLKFHDDIISCGYNVISVGHEHENDACLLSSSSSSSNSDKSIWLCYNSITGDSGITKLDKQYVRKMRLFEIDFEKNRILSWKRKEIDNQPFDYQLIYEKPQKEGHHHHHH”, the “soluble on expression in E. coli” value was “soluble”.

For “MKPANLIHPSVIMSKKYNKMGEGCIICASNIITVNVTLGDHIIVNLDCTIGHDVVINDYVTIYPSVNVSGNCNIGECVELGTGTQVIQGNNIGDRTIVGAGSVVIRNIEGDKVAVGVPTKVIKLEHHHHHH”, the “soluble on expression in E. coli” value was “not soluble”.

With “MEEPFEAYRSREVAMKLVEKIREEAKTLDGEIRIMHVCGTHEDTVTRHGIRSLLPENVKVVSGPGCPVCITPVEDIVAMQLIMRKAREEGEEIILTTFGDMYKIPTPMGSFADLKSEGFDVRIVYGIFDTYRIAKENPDKTVVHFSPGFETTTAPAAGMLNVAAQEELENFKIYSVHRLTPPAVEVLLKQGTVFQGLIAPGHVSTIIGVKGWEYLTEKYGIPQVVAGFEPNDVLMAILMLIRMYKEGEARIINEYERAVKYEGNVVAQKMIDKFFEVVDAKWRALGVFPKSGLELRKEWKDFEIRSFYKVEVPKNLPDLEKGCRCGAVLRGLALPTDCPLFGKTCTPRHPVGPCMVSYEGTCQIFYKYGVLF” the “soluble on expression in E. coli” value was “soluble”.
